Reference: patent publication US9259432B1, “Composition and methods for targeted delivery of a therapeutic compound to the brain or spinal cord of a subject for treatment of neurodegenerative diseases” (Parminder J. S. Vig, priority 2011, dated 2016)

Tests used:
Assay type in all cases: cell-based
[1] = tested on: differentiated GFP-ATXN1[82Q] SHSY5Y cells; experiment: Oxyblot of S100B induced oxidized proteins; conditions: 5 μM S100B 2 hrs; compared to GFP-ATXN1[30Q] cells
Method: FIG. 16: (a) GFP-ATXN1[82Q] and (b) GFP-ATXN1[30Q] SHSY5Y stable cells were placed on 12-well plates and subjected to treatment with 25 nM TPA for 3 days to produce differentiated SHSY5Y cell lines. Next, the cells were pretreated with 50 μM Synb1-ELP-TRTK for 1 hr then treated with 5 μM S100B for 2 hrs or treated with 150 μM H2O2 for 2 hrs, where control cells were treated with serum free media for 3 hrs. Then the cells were lysed and analyzed with the Oxyblot kit and a β-tubulin antibody. Shown is the resulting oxyblot/western blot data. (c) Optical densities of the protein bands were taken using ImageJ software. Graphs shown the ratio of oxidized protein/β-tubulin protein normalized to the control. Statistics were taken using the student's t-test. * GFP-ATXN1[82Q]: S100B vs Synb1-ELP-TRTK+S100B, P<0.05. ψ GFP-ATXN1[82Q]: H2O2 vs GFP-ATXN1[30Q]: H2O2, P<0.05.
GFP-ATXN1[82Q] or GFP-ATXN1[30Q] stable cells were placed on 12-well plates at a concentration of 60,000 cells per well. Cells were treated with 25 nM TPA for 3 days to produce differentiated SHSY5Y cell lines. […] Cell lysates were analyzed with the Oxyblot kit according to manufacturer's protocol ([…]) and with a β-tubulin antibody (Sigma), where 5 μgs of protein was loaded in each well of 4-20% acrylamide gel (Bio-Rad Laboratories, Hercules, Calif., USA). […]

[2] = tested on: differentiated GFP-ATXN1[82Q] SHSY5Y cells; experiment: Neurite changes after S100B treatment, mutant ataxin-1 cells; conditions: 3.0 μM S100B 48 hrs, vs untreated
Method: FIG. 15: GFP-ATXN1[82Q] SHSY5Y stable cells were placed on 2-well slides and subjected to treatment with 25 nM TPA for 3 days to produce differentiated SHSY5Y cells. Next, slides were fixed and probed with (a &b) GFP, (a) Synaptophycin and (b) RAGE antibodies and fluorescent secondary antibodies Alexa 488 and Alexa 546 followed by DAPI staining. Scale Bars: […]. Differentiated SHSY5Y cells were treated with 3.0 μM S100B for 48 hrs and neurite changes were visualized under the microscope. (c) Data is shown as MEAN±STDEV of the percentage of cells with neurites, n=100. (d) Data is shown as MEAN±SE of neurite length, n=100. Statistics were taken using student's t-test. *P<0.05.
SHSY5Y cells (Invitrogen, Carlsbad, Calif., USA) were maintained in DMEM/F12 media (Fisher, Houston, Tex., USA) supplemented with 15% FBS, penicillin-streptomycin (Sigma), and grown in an incubator at 37° C. in the presence of 5% CO2. S100B was labeled with Alexa 488 labeling kit (Invitrogen) to produce 488-S100B. […] Next, cells were washed then treated with 1 μM 488-S100B for 3 hrs and S100B uptake was analyzed by Epi-fluorescence or by Beckman Cytometric FC 500 flow cytometer as previously described (Bidwell et al., 2009). For flow cytometry experiments, 488-S100B uptake was measured by quenching extracellular fluorescence by coating the cells with Trypan Blue (Fisher) as described previously (Bidwell et al., 2009). […]

[3] = tested on: differentiated GFP-ATXN1[30Q] SHSY5Y cells; experiment: Neurite changes after S100B treatment, normal ataxin-1 cells; conditions: 3.0 μM S100B 48 hrs, vs untreated

B1: S100B: glial secreted EF-hand calcium binding protein, purchased from Sigma-Aldrich; applied to cells as neurotoxic stimulus (protein, UniProt P04271 2-92, looked up)
Protein S100-B: SELEKAMVALIDVFHQYSGREGDKHKLKKSELKELINNELSHFLEEIKEQEVVDKVMETLDNDGDGECDFQEFMAFVAMVTTACHEFFEHE
[1]
  level of oxidized proteins after S100B treatment: greater level of oxidized proteins
[2]
  neurite length: significantly reduced
  percentage of cells with neurites: significant reduction
[3]
  effect on neurites (percentage of cells with neurites, neurite length): no significant effect
